From patent publication US10350264B2, “Compositions and methods for modulating NCOA4-mediated autophagic targeting of ferritin” (Dana-Farber Cancer Institute, Inc., priority 2014, dated 2019) come the findings set out here.

What all share (type): binding
Test [1] concerns the target T1, apo-ferritin purified from equine spleen (Equus caballus, UniProt Q8MIP0).
T1 construct: apo-ferritin purified from equine spleen; purchased Sigma F4503; host or cells: equine spleen
Briefly: GST pull-down assay of ferritin using GST-NCOA4 fragments. The note with it: anti-FTH1 immunoblot, FIGS. 7, 8, 11. The text has this:
GST-tagged NCOA4 constructs were also made to probe the interactions of C-terminal portions of NCOA4 with ferritin. NCOA4-truncation constructs were produced using Gateway cloning (Invitrogen, Life Technologies, catalog #11789-013 and 11791-019) into a pDEST60 N-terminal GST fusion plasmid (GST-NCOA4) from EMD Millipore (Gateway Nova pET-60-DEST, product #71851-3) and transformed in E. coli BL21 (DE3) cells (New England Biosciences, C2527I).
NCOA4 truncation constructs were designed based on NCBI reference sequence: NP_001138735.1 (SEQ ID NO: 4). In particular, fragments of SEQ ID NO: 4 consisting of amino acids (aa) 1-245, aa 235-614, aa 235-560, aa 235-401, aa 383-560, aa 545-614, aa 383-522, aa 510-560, aa 383-436, aa 436-485, aa 475-522, aa 475-500, aa 480-500, aa 480-504, aa 485-509, aa 490-514, aa 495-522 were designed. Protein expression in the DE3 cells was induced with 1 mM isopropyl-beta-D-thiogalactopyranoside (IPTG) (Sigma, I6758-10 G) for 3 hours at 37° C. Cells were collected by centrifugation, re-suspended in 25 mM Tris-HCl (pH 7.4), 10% (w/v) sucrose and lysed with a single freeze-thaw cycle followed by sonication. After centrifugation, a GST pull-down assay was performed.
(§1) In the GST pull-down assay, lysates were incubated with 10 μl of a 50% (v/v) slurry of glutathione Sepharose 4B beads (GE Healthcare Lifesciences, 17-0756-01) for 30 minutes at 4° C. Beads were washed thoroughly with 150 mM NaCl, 20 mM Tris (pH 7.4), 2 mM dithiothreitol (DTT), 0.5% (w/v) Nonidet P-40, leaving 50-100 μg of GST-fusion protein bound to the beads. Beads were then mixed with 0.5-2 μg of apo-ferritin purified from equine spleen (Sigma F4503) or recombinant human FTH1 or FTL produced in Rosetta E. coli (EMD Millipore, 70953-3). The assay mix was incubated for 2 hours at 4° C., and beads were washed four times with 1 ml wash buffer. Proteins were eluted with SDS sample buffer and analyzed by 4-20% gradient SDS-PAGE and immunoblotting with anti-FTH1 antibody (as above) or anti-FLAG antibody (Sigma, F1804-200 UG). Pounceau stain was used to visualize GST-NCOA4 bands. (Pounceau, Sigma, P7170-1 L, protocol as per product manual).
Background: In western blotting, separated proteins are transferred to a membrane and probed.

The target of a further test is T2, recombinant human FTH1 (Homo sapiens, UniProt P02794).
T2 construct: made in house; host or cells: Rosetta E. coli (EMD Millipore, 70953-3)
The test is described as follows: GST pull-down assay of recombinant FTH1 using GST-NCOA4. The settings on record: recombinant FTH1 from E. coli, 0.2 μg and 1 μg, FIG. 10A. As to the method:
as §1
(§2) To understand if there was subunit specificity for NCOA4 binding to ferritin, the NCOA4 C-terminus (aa 235-614) fusion protein was immobilized on glutathione Sepharose beads, as described in Example 1. Recombinant purified FTH1 or FTL produced in E. coli was added at concentrations of 0.2 μg and 1 μg, and binding was determined using the GST pull-down assay described in Example 1, above.

Test [2] addresses T3, ferritin purified from horse spleen (mixture of FTH1 and FTL subunits) (Equus caballus, UniProt Q8MIP0).
T3 construct: ferritin purified from horse spleen; purchased Sigma A3641-100 mg; host or cells: horse spleen
The test is described as follows: anti-MYC immunoprecipitation of in vitro translated MYC-NCOA4 constructs incubated with ferritin. The settings on record: anti-MYC IP, anti-FTH1 immunoblot, FIG. 5. As to the method: To probe the interaction between ferritin and NCOA4, initial binding assays using MYC-tagged NCOA4 full-length and truncation constructs produced using an in vitro translation (“IVT”) system were conducted. MYC-NCOA4 fragments were cloned using PCR into a modified T7 cell-free expression vector (pT7CFE1-NMyc, #88863, Thermo Scientific). 1-Step Human Coupled IVT Kit—DNA from Thermo Scientific (product #88881) was used to produce MYC-tagged NCOA4 constructs as described in the product manual. Apoferritin (Sigma, A3641-100 mg) was added in a pull-down assay using anti-c-Myc Agarose Affinity Gel antibody produced in rabbit (Sigma, A7470-1 ML). Affinity purification reactions were washed thoroughly with 150 mM NaCl, 20 mM Tris (pH 7.4), and 2 mM dithiothreitol. Proteins were eluted with SDS sample buffer and analyzed by 4-20% gradient SDS-PAGE and immunoblotting with anti-FTH1 antibody (Cell Signaling 3998; Western blot 1:1,000) or anti-MYC antibody (Santa Cruz Sc-40; western blot 1:1,000).
The full-length, N-terminal (amino acids (aa) 1-245 of SEQ ID NO: 4) and C-terminal (aa 235-614 of SEQ ID NO:4) MYC-NCOA4 were incubated with ferritin purified from horse spleen (Apoferritin (Sigma, A3641-100 mg), consisting of a mixture of FTH1 and FTL subunits) and anti-MYC immunoprecipitation was performed followed by immunoblotting as described above.

A further test has as its target T4, recombinant human FTL (Homo sapiens, UniProt P02792).
T4 construct: made in house; host or cells: Rosetta E. coli (EMD Millipore, 70953-3)
The test is described as follows: GST pull-down assay of recombinant FTL using GST-NCOA4. The note with it: recombinant FTL from E. coli, 0.2 μg and 1 μg; FIG. 10B; listed as GST-NCOA4 fragment. As to the method:
as §1, §2

T3 sequence (Q8MIP0 whole entry): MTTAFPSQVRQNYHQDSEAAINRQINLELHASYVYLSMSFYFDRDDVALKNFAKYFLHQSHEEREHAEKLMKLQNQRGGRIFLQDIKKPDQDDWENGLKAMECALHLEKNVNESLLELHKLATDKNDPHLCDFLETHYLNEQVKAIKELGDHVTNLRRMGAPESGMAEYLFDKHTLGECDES
T3 sequence (P02791 2-175 partner limits assumed): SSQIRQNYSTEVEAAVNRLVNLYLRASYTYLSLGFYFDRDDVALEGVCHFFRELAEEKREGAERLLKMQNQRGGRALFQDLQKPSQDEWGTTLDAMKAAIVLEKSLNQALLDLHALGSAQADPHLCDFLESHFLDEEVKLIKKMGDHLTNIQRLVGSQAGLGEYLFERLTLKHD
T2 sequence (P02794 whole entry): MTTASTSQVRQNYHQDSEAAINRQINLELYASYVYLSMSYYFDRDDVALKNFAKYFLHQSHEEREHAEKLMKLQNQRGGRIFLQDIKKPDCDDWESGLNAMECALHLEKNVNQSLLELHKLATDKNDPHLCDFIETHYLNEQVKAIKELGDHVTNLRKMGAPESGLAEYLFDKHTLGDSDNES
T1 sequence (Q8MIP0 whole entry): as the sequence (Q8MIP0 whole entry) above
T1 sequence (P02791 2-175 partner limits assumed): as the sequence (P02791 2-175 partner limits assumed) above
T4 sequence (P02792 whole entry): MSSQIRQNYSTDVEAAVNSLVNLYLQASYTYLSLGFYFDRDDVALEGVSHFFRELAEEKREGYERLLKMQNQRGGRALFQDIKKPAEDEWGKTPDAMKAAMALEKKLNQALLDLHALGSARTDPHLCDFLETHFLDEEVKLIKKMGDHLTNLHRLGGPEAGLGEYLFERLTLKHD

B1: aa 235-614: NCOA4 C-terminal fragment, amino acids 235-614 of SEQ ID NO: 4 (protein)
chain: ENSQTSSRACNFFNNVGGNLKGLENWLLKSEKSSYQKCNSHSTTSSFSIEMEKVGDQELPDQDEMDLSDWLVTPQESHKLRKPENGSRETSEKFKLLFQSYNVNDWLVKTDSCTNCQGNQPKGVEIENLGNLKCLNDHLEAKKPLSTPSMVTEDWLVQNHQDPCKVEEVCRANEPCTSFAECVCDENCEKEALYKWLLKKEGKDKNGMPVEPKPEPEKHKDSLNMWLCPRKEVIEQTKAPKAMTPSRIADSFQVIKNSPLSEWLIRPPYKEGSPKEVPGTEDRAGKQKFKSPMNTSWCSFNTADWVLPGKKMGNLSQLSSGEDKWLLRKKAQEVLLNSPLQEEHNFPPDHYGLPAVCDLFACMQLKVDKEKWLYRTPLQM
modifications: Homo sapien
B1: in test [1], the “binding of GST-NCOA4 fragment to ferritin” value is reported as “bound to ferritin”. Besides, the figures for the “binding of GST-NCOA4 to FTH1” value in the test with recombinant human FTH1 (listed as GST-NCOA4 fragment) and with recombinant human FTH1 (listed as NCOA4 C-terminus) were “binds to FTH1” and “interacted with the NCOA4 C-terminus”, respectively. Further, the figures for the “association of MYC-NCOA4 construct with ferritin” value in test [2] and in test [2] (listed as C-terminal NCOA4) were “associated with ferritin” and “bind to ferritin”, respectively. Also, the “binding of GST-NCOA4 to FTL” value with recombinant human FTL is recorded as “binds minimally to FTL”.
